{"source": "the DeepSol protein solubility set"}
{"assay": "soluble on expression in E. coli; label from the status in PepcDB or PDB records"}
{"sequence": "MSLFLSNVILHQLRKNDNDELVVNYRAESLRNDTSTENLVAELHRVFNAKAGKGFGCFKSDSEFQLWLQEMRRGTLPFYEFSQQSAQRLKNELAKYPFADEGILVMAEYQSLATDYLFIGLLPLNQSLKVTEGLDISATDYLDINKMDIVARIDLSSYETDKESKRYLSYIKGRVGRKVADFFLDFLQADIGLDTKQQNQVLMQAVEDFCADAKFEKEEVISYKKQVYEYCNDQIKAGDEVRVQELSGELPPSNEGVNFFDFTREQGYQLEESFPADRSTVRKLTKYVGAGGGLNLSFDSLLLGERVFYDPETDTLTIKGTPPNLRDQLTRLRLEHHHHHH", "soluble on expression in E. coli": "soluble"}
{"sequence": "MSLGAIVEVITIKNYSLKSENYEAEIDIPKIRGLKDKNLEQRLNSSFMEDGKRLYHQFQERMEKIQSSKNKGYKSLSLSYSVKNNSKKFLSIEMTKNEIEASSYVSKVHYTIDKKRQIVLTLPMLFKDDKYIKVISDNIKEQMREQMKKDSTKSYFIDEGHHHHHH", "soluble on expression in E. coli": "not soluble"}
{"sequence": "MSLGASATRILFVDDEPSILKSLRRVTRSMSAECIFVDNGRDALALMRENPFDVVVSDMRMPEMDGATLLAEIARDYPETMRLVLSGFAEDDLILAAINEGRVWGFIHKPWDDHQLIVTLQHAVTTQQMMVERALLRRTVERYTSELKESFVSFVGGSLPMQAVYNQIERAAPSNASVFITGPSGTGKELAAEAIHKLSERKNGPFIALNCAAIPTELMESEIFGHVKGAFTGAVSARDGAATQAHNGTLFLDEIGEMDISLQAKLLRFIQTGSFQKVGGTKQENVNIRFVCATNRAPLDAIANGTLREDLYYRLNVVALHLPPLNQRENDPILLANTFLQRFAAQERKELVGFSSEASSLILGYDWPGNVRQLQNCIHNVVVMSAGPLITPNDIAIALQLDPQQVATEGHHHHHH", "soluble on expression in E. coli": "not soluble"}
{"sequence": "MSLGECPEYGKVKWIGNIYCHKYDEATTTLLSISTGTQSLGQDLKQRQAQLSIAKLTALAAEVQDLEKLNEIQTELDLIDGQILLSQELQESTLNPLFKDFTTYRTLFKYLSDAVKRRESLSVPHMIELFTLLNQDTSYGFALSILAIDHTLPTEVKKYCEYQIWRRCLLSDENAVRQTLRVFFKQQFYHQSIELPIIDNLANEKLITDSYLDGMYHGLTDLNKLASDVKREVALFANSNLDVTMLQSIIGEINEETGNQCVINYATNTIETSPTSEGHHHHHH", "soluble on expression in E. coli": "soluble"}
{"sequence": "MSLGEPAQPGAKKYVLFDVDGTLIDAVDNQRRVWRVWAERYGLDPGEVYQVALRTRPMETFAQVAPDRDPQECLAALHELEDEDVRSGVYAAFDGASELLDALPPESWALVTSNYEHRVRGRFARTGLPVPSIIVDAASVEEGKPSPVPYLLAAKRLGADPQDCLVIEDAPSGVRSALRAGMTVWGVNAPVAVDGVHRHFGSLREAIRDILAVTSGTRPHEPRGSAAVEGHHHHHH", "soluble on expression in E. coli": "soluble"}
{"sequence": "MSLGFAGDGKTYTASELAIGLVMLMRQRGIEAGNRPVMFLDTETGSDWVKPRFDAENIELFTAKTRSFVDLLEAINEAESSGSVMIIDSISHFWTGLCDEYARRRNRKRGLEFSDWAWLKQEWRRFTDRFVNSQAHIIMCGRAGYEYDFFEGDDGKRQLAKTGIKMKAETETGYEPSIRIQMEKQMNIETGQVWRTARILKDRSTRIDGQVFSNPTFKNFLPHIESLNLGGEHPGIDTSRDNSELFANDGTPTWLKEKRAKEIALDEIIELLNKHHGGTSNDAKRAKADLLEKTFTSRSWERIKGMDWPTIKAGRNALWIELEGVEYAFPDEGHHHHHH", "soluble on expression in E. coli": "soluble"}
{"sequence": "MSLGINGFTAHAQKLSLIYNTLDSRDMPTRGLYAKAAIEGSAEFLGSDASYRHYEAELKGYFPLKEARYITVARVAYNQTLGSDVPFLERSILGGESTLRGYGRNRFIDSSYFLCNLEERIRLFRWSVFDVNTDWEVAPFIDLGAVMESLDKTRSKNFEFNPGIGFRAVVRPNIVGRVDIGVGNDGPAVFVGLGYPFEGHHHHHH", "soluble on expression in E. coli": "not soluble"}
{"sequence": "MSLGKHVTIGFAGPQADHGWLNAINDNAKSRAKKYGDVTLEITEGSNDTAAQIGQIETLINKKVDVLVVLPADGKALTQVGLKAMRAGIPVVNLDRIFNSPQAYRCWIGGDNYGMGLSAGRYIGEKLKDKPNARVVELAGLDNLELTKQRTQGFDAALKNYPNIRKVARQAAEFTVESGQSKMAQLLQAQSRFDALWNHDDDQGVGALRAIKQAGRDDFLMVGGAGALSAFQAIKADDGVLKATVLYPPTMAASAIDLARALGQGKGVGGLAEFEIPASLTLYSAVVDKDNVGQYMSTGFREGHHHHHH", "soluble on expression in E. coli": "soluble"}
{"sequence": "MSLGMHGAAHIVWDWNGTLFHDNAAIIGATNAAFAELGLEPITLERYRALYCVPVPKFYERLIGRLPTDAEWEIMDEIFHRYYAEHRVGCGLTEGAAELLVEWQSAGHSQSILSMYVHDELVPLVRGFGIEPHFIRVDGRTGPSGGSKAEHMVRHIGALAGVAGVDPARTVVIGDAADDAVAALHVGAQAVLYTGGSHSRASLEGVGVPVVDTLAEAVEEAGRLAAEGHHHHHH", "soluble on expression in E. coli": "soluble"}
{"sequence": "MSLGNAMNITSCISQSECSCQLSESTSDTNSNSSFKTRSLGYDRSSQSLSISDVELGFKSVTETSSNNYRLRRIIESNDFFKDVMYKFFLLRENSLVLDQSKSYYSDKDPHYSIICSDYYVFALRRILIEGHHHHHH", "soluble on expression in E. coli": "not soluble"}
{"sequence": "MSLGNRMKVCIYGAGAIGGYLGVQLAQSGAADVSLVARGAHLQAMKENGLKLLIEGEERVIKPNATDKPAELGVQDVIIICLKAHSITGAIDSMKPLLGSHTRIVTAVNGVPYWYFHKHGGNEFEGRTLESIDPGGRQWKELGPERGIGCIVYPATELEAPGVIRHVYGDKFPIGEPSGETTSDVENLSKVFEASGLKAPILDRIRDEIWLKLWGNVCFNPISALTHATLDVIASDPATRALSKAMMLEAQQIAETFGVKFRVDVERRIEGARKVGAHKTSMLQDLERGRPMEIDPLVTVVQEMGRMTNIPTPAIDSVLGLVIQRAKVAGLYEGHHHHHH", "soluble on expression in E. coli": "soluble"}
{"sequence": "MSLGNYAKPIGTAPVTANPTDYSSALVCLNQYARTNRIVAPRIAIGRIADYTGKEESDGSGRKVTQGASLMAVSAFAKAGMPLVERFDTSVSEFELKYANNKLISDRPNPAPDAPADFRKILAGQVPGSDFYVIGGITELNYNIRSAGIDAYAGDKDTDGLKGNFRRRVFIMNIALDLRLVNTRTLEVVDVISYQKQVVGREVSAGVFDFLNGNLFDISAGRGALEPMQLAVRALIERATVEMAANLYGMPGPESCLRFDPFGDATVGQTGAFTPAYNNLGTNNAQTRDDPSRWNARRDPDIRDAKRGRYEGHHHHHH", "soluble on expression in E. coli": "not soluble"}
{"sequence": "MSLGRAGRGIDSAVGILLCGSEDRAIHKFFRESAFPAEAQIHEILNVLSVNDGLTLRGIEQRTNLRYGQIEKALKLLVAENPSPVVYTEKLWRRTIVSFSPDHERINHLMNQRKSELADVESYITTKECKMQFLRRALDEPGAEHCGKCSSCLQHPLLSPDIDSGLLHAANLFIKHADLSLNLNKQVAAGAFTQYGFKGNLPASLQGSTGRILSRWGYSGWGKQVAQEKKTGRFSDELVEACAEMVRQRWNPHPEPTWVCCVPSLKHLDLVPDFESTSTWFLILPGDWRRNLAYLLLMPLKKSWTIHRRKCSKTVSTSVKISTGREGHHHHHH", "soluble on expression in E. coli": "not soluble"}
{"sequence": "MSLGRDKDLNILCWEGYNSAQVLDPFRKLTGATVKAESSTNDPTMINRLRAGETNVWDLINVNNPWARKILWPQNLIKPLDRAEFEPFFDKMLPEFKAPYRWAMSDDGKDLLGMAQRFGPFCFVVDTDKISRQTAEDQGWDLWNDKALAGRYGIQESDDWNVFGLFLIAGINPFKTHTEAELAKFEETAKAVFKGAKVVGDMASMNQALVSGEIDLYLSGGTYTVSPARAEGLGNLRGITPLRGPIDGKGGVMWVEITSQVNNPQLSPLAGQFLKHVQTPQVAHTVAFAEGTFNPIAQMGNPDCFKLFSKAELDAIQWDSLAEEMARSVAYDIVPDYDKALDLMTAAKRVRGEGHHHHHH", "soluble on expression in E. coli": "soluble"}
{"sequence": "MSLGSGHAGKARSAVTTTDADWKPVADALGRSGKLGDNNTAYRINLPRNDLHITSYGVDIKPGLSLGGYAAFARYDNNETLLMGDLVITEEELPKVTDALQAHGIAQTALHKHLLQQDPPVWWTHIHGMGDAARLAQGLKAALDATTIGPPTPPPARQPPVDIDVAGVDQALGRKGTQDGGLMKYSIPRKDTIIEDGHVLPAVSLNLTTVINFQPVGRGRAAINGDFILIAPEVQEVIRAMRAGNITIVELHNHGLTEEPRLFYMHYWAVDDAVTLARALRPAMDATNLQSEGHHHHHH", "soluble on expression in E. coli": "soluble"}
{"sequence": "MSLGYDHPEILLNFKKDADIWDMMLNTNYMKTCREVVFEYLGVKNGDTVLEVGCGSRSPVYFASKVAPNGAYTGVDISKKLIRVAEGRLKRSGVECVNLKSMDFSETITKYKHDYVLCIHTLSYAHSMKLFLKKMMESLRKGGKLLIMEEFFTENINTNAELFEFYNHLNKYFKNYVSRTEILKEIEMLGYDFKYELLGNNCIVVERIEGHHHHHH", "soluble on expression in E. coli": "not soluble"}
{"sequence": "MSLGYGIRLLVWGEFACFTRPEMKVERVSYDVMTPSAARGILESIHWKPSIVWKIDKIHVLNEIRFDNVRRNEVGSKIPTGNVRKAMKGEPTLLCQYASEDRQQRATLLLRNVAYVIVAHFEMTSKAGPQDSPEKHYAIFSRRARQGQCFQQPYFGCREFPAKFRLIEEDEPTPHSLHKGDKDLGWMLLDIDHEDGMNPRFFRATMKDGLIEVPPMERGLTVLEGHHHHHH", "soluble on expression in E. coli": "soluble"}
{"sequence": "MSLHEFQTDSKNKHKVDVHIGIYAPFSSHSAFIGRNILAAMEMGSERLQSSDIHYSFYTLDQLPKNKNAGLVLQKFIDTHHINVLVTGGKETGLIAAPIAKKNNLIHFSLTNNTEVADGRNNFIVWSPAYDQAKVLVNELKRQQVHHLGIITANQPSSTALTHSVIKQLQSDSHIDVAASEYFEPGNKDFSRLTNRIKRKNADMYLVMASPEDIKLIQEQMEADKQHVPITSIVERATPEVVKVFEGQWYVDSHEMQPDFINEFKQNYLNYPVTEAGYAFDLFQLLNKSIVMAIRTQGSPTTSQEVVHQLHDIANGTGVMGTMVLDSKGSLFTKSEVKTVKNGEIHTVEGHHHHHH", "soluble on expression in E. coli": "soluble"}
{"sequence": "MSLHGVPFGTVPPMGTIGLIAAMPDEIRPFLRLASPAARLHGGRFPIWRLRVGNDDIVLVESGMGIDRATAATDALVAAASPVAILSFGFGGAALPGLKVGDLAVGMTSWFAGTEGIVLRRGIDRNLAEKLAEELNRICNGVTRGEIITSARILKKGDLAHSLPNGISSPILDMETAAVAEAAHRRGIPIVALRAISDDAEEELSFSLDEFTDDDMAIRPRKVLATIARKEGHHHHHH", "soluble on expression in E. coli": "soluble"}
{"sequence": "MSLHITTKRLLIREFEFKDWQAVYEYTSDSNVMKYIPEGVFTEEDAKAFVNKNKGDNAEKFPVILRDEDCLIGHIVFYKYFGEHTYEIGWVFNPNYQNKGYASEAAQAILEYGFKEMNLHRIIATCQPENIPSYRVMKKIGMRREGFFKKCIPKGNEWWDEYYYAILEEEWNEGHHHHHH", "soluble on expression in E. coli": "soluble"}
{"sequence": "MSLHPHLNANLEGGVLTLAINRPEAKNALYGELYLWIAKALDEADQNKDVRVVVLRGAEHDFTAGNDMKDFMGFVQNPNAGPAGQVPPFVLLKSAARLSKPLIIAVKGVAIGIGVTILLQADLVFADNTALFQIPFVSLGLSPEGGASQLLVKQAGYHKAAELLFTAKKFNAETALQAGLVNEIVEDAYATAQATAQHLTALPLASLKQTKALMKHDLDQIIECIDHEAEIFMQRVQSPEMLEAVQAFMQKRQPDFSQEGHHHHHH", "soluble on expression in E. coli": "soluble"}
